Data from doi:10.1101/2023.12.10.570967.
pKd: −log10 of the molar value.

Molecular target: Drosophila Eggless/SetDB1 tandem Tudor domains (3TD, aa 444-700), wild type (Drosophila) (UniProt Q32KD2)
Experiment: SPR

UniProt Q32KD2, sequence (Q32KD2 444-700): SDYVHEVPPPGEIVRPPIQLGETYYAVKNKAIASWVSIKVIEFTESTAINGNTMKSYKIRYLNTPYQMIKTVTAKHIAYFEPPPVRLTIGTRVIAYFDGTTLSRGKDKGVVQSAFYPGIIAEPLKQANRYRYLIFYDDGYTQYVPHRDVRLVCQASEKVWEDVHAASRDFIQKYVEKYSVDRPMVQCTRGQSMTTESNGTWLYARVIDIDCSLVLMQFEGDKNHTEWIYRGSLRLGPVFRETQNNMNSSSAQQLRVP

pKd: 3.31
Substance: H3K14ac peptide
